# In patent US20210017280A1 (EUREKA THERAPEUTICS, published 2021):
# T1: domains 5-7 of CD22 conjugated to green fluorescent protein, expressed in Jurkat cells (human, UniProt P20273 414-687)
# T1 construct: also called Jurkat-CD22 (D5-D7)-GFP; not shown: membrane anchor and green fluorescent protein (GFP) fusion
# T1 sequence: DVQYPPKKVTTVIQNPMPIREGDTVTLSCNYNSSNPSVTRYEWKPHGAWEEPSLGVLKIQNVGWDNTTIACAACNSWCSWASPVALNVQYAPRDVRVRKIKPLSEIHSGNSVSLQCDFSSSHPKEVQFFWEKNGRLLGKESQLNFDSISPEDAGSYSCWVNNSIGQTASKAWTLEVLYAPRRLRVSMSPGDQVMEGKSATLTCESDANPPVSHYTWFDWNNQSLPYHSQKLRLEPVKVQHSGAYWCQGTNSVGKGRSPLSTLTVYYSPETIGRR
# T2: full-length human CD22 (human, UniProt P20273 20-847)
# T2 construct: CD22 on the cell surface: natural on Raji and NALM-6 cells, introduced in Jurkat cells (full-length) and in K562+CD22 cells; The K562 construct is not described further; also called Jurkat-CD22-full; CD22 on Raji, NALM-6 and K562+CD22 cells
# T2 sequence: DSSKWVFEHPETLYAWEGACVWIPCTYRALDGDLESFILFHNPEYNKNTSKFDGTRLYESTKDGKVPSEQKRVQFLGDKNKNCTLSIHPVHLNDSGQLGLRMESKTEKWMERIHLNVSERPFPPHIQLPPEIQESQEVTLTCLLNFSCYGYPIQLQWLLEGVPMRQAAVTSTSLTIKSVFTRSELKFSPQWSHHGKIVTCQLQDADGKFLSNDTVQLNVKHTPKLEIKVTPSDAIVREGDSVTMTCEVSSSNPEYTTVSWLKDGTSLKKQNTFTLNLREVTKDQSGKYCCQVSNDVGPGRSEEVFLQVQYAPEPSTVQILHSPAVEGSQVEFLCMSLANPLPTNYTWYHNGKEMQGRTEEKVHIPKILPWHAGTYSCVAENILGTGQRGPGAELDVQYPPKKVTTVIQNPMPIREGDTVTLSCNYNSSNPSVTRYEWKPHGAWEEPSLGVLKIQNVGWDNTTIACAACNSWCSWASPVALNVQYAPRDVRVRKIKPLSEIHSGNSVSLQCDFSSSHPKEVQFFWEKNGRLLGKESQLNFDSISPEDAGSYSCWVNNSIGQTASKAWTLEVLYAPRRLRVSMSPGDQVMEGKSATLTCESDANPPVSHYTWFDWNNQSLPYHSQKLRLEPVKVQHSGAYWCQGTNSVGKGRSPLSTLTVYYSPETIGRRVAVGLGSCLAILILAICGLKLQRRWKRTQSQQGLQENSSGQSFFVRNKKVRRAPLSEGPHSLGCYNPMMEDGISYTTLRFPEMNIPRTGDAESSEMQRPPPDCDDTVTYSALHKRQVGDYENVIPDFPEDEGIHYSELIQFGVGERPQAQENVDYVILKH
# B1: phage clone 1 (anti-CD22 clone 1) (scFv, V domains shown)
# VH: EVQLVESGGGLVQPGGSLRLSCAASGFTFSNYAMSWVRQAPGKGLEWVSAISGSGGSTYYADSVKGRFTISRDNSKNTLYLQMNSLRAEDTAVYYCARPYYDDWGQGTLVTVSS
# VL: QSVVTQPPSVSAAPGQKVTISCSGSSSNIGNNYVSWYQQLPGTAPKLLIYENNKRPSGIPDRFSGSKSGTSATLGITGLQTGDEADYYCGTWDSSLSAGAVFGGGTKLTVLG
# B2: phage clone 2 (anti-CD22 clone 2) (scFv, V domains shown)
# VH: QVQLVESGGGLVQPGGSLRLSCAASGFTFSNYAMSWVRQAPGKGLEWVSSISGSGGSTYYADSVKGRFTISRDTSKNTLYLQMNSLRAEDTAVYYCARYGSAAWMDSWGQGTLVTVSS
# VL: DIQLTQSPSSLSTSVGDRVTITCQASHDIRNYLNWYQQKPGKAPNLLIYAASNLQTGVPSRFSGRGSGTDFTLTISSLQPEDIATYYCQQYDGLPLTFGQGTRLEIKR
# Assays:
# [1] = target: T1, domains 5-7 of CD22 conjugated to green …; experiment: flow cytometry, phage clone on Jurkat cells expressing domains 5-7 of CD22-GFP
# full-length human CD22 [2] = target: T2, full-length human CD22; experiment: flow cytometry, phage clone on Raji cells and Jurkat cells expressing full-length CD22
# full-length human CD22 [3] = target: T2, full-length human CD22; experiment: flow cytometry, phage clone on NALM-6 cells
# [4] = target: T1, domains 5-7 of CD22 conjugated to green …; experiment: flow cytometry, phage clone on cells
Binder,binding result [1],binding result (full-length human CD22 [2]),binding result (full-length human CD22 [3]),binding result [4]
B1,binds,binds,–,–
B2,–,–,binds,binds
